According to paper PMC10516654, “Structural and functional characterization of MrpR, the master repressor of the Bacillus subtilis prophage SPβ”:

Biological target: T1, MrpR (Bacillus subtilis prophage SPβ, UniProt O34558 1-325)
T1 sequence: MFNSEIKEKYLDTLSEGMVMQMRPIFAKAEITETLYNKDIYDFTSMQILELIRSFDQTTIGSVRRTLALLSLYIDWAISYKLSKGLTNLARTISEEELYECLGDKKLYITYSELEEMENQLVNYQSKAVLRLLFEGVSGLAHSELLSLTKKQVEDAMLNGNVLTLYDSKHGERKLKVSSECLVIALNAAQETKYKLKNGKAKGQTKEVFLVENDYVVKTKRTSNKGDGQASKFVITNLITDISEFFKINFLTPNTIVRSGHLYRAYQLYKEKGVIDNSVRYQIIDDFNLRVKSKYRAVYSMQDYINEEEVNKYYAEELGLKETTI
Assay: ITC; ITC: 20 mM HEPES-Na pH 7.5, 200 mM NaCl, 20 mM KCl, 25 C, 20 uM DNA in cell, protein in syringe, one set of sites; EMSA: same buffer plus 50 ug/ml herring sperm DNA, 50 nM DNA, RT 15 min, 6% native PAGE 0.5x TBE
Conditions: protein: recombinant; tags: C-terminal His6; blunt

B1: aimR promoter ITC duplex (LC292/LC293) (dsDNA)
DNA 1: GAATTTTAAAGAGATTACAAATACAAAAAATATGTATAAAATAATTGACTCGTAATG
DNA 2: CATTACGAGTCAATTATTTTATACATATTTTTTGTATTTGTAATCTCTTTAAAATTC
Kd: 238 ± 80 nM
